Assay [1] addresses monkey CD20 (on monkey peripheral blood cells) (monkey) (UniProt M4ZHZ6). Put plainly: flow cytometry on monkey peripheral blood, N = 3, mean (SD 3.3); control column 0.2 (0.1). In general terms: A flow cytometer gives signals particle by particle.
The target in assay [2] is human CD20 (on the human B-cell lymphoma cell line WIL2-S and other CD20+ human B-cell lines) (human) (UniProt P11836). The assay can be described thus: cell-based or functional assay.
UniProt P11836, sequence (P11836 whole entry): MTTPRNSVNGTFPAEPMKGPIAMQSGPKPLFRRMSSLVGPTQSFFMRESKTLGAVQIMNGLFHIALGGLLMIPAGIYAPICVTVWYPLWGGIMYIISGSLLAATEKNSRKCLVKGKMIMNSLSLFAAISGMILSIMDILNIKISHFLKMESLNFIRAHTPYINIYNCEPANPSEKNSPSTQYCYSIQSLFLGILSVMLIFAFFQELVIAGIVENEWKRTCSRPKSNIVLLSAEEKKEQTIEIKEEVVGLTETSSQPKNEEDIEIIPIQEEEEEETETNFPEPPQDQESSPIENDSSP

UniProt M4ZHZ6, sequence (M4ZHZ6 entry or part of it limits assumed): as the sequence (P11836 whole entry) above, with S25P, F31L, T51A, A157V, K217R, N226S, I227V, T239V counted along it

In the case of rituximab (antibody), the percent positive staining cells in assay [1] was 21.5%. Further, in assay [2], the apoptosis of Ramos B-cells, annexin V/propidium iodide flow cytometry came out at 60 % cell lysis.

For the origin of these results see US20080213273A1.
